Results published in paper PMC2577774 (Journal of molecular biology, 2008).

Target: the molecule itself
Assay: native MS

B1: gp3(Δ1–152), C-terminal truncate of P22 terminase small subunit gp3 lacking ten amino acids (domain or fragment, bacteriophage P22, UniProt P04893 1-152, looked up)
chain: MAAPKGNRFWEARSSHGRNPKFESPEALWAACCEYFEWVEANPLWEMKAFSYQGEVIQEPIAKMRAMTITGLTLFIDVTLETWRTYRLREDLSEVVTRAEQVIYDQKFSGAAADLLNANIIARDLGLKEQSQVEDVTPDKGDRDKRRSRIKE
  stoichiometry N: 9
